This note sets out measurements from IntAct's records for PubMed 11847120.

To fix the notation:
B1: POU domain, class 2, transcription factor 1 (Homo sapiens), P14859-1 (parent)
chain: MNNPSETSKPSMESGDGNTGTQTNGLDFQKQPVPVGGAISTAQAQAFLGHLHQVQLAGTSLQAAAQSLNVQSKSNEESGDSQQPSQPSQQPSVQAAIPQTQLMLAGGQITGLTLTPAQQQLLLQQAQAQAQLLAAAVQQHSASQQHSAAGATISASAATPMTQIPLSQPIQIAQDLQQLQQLQQQNLNLQQFVLVHPTTNLQPAQFIISQTPQGQQGLLQAQNLLTQLPQQSQANLLQSQPSITLTSQPATPTRTIAATPIQTLPQSQSTPKRIDTPSLEEPSDLEELEQFAKTFKQRRIKLGFTQGDVGLAMGKLYGNDFSQTTISRFEALNLSFKNMCKLKPLLEKWLNDAENLSSDSSLSSPSALNSPGIEGLSRRRKKRTSIETNIRVALEKSFLENQKPTSEEITMIADQLNMEKEVIRVWFCNRRQKEKRINPPSSGGTSSSPIKAIFPSPTSLVATTPSLVTSSAATTLTVSPVLPLTSAAVTNLSVTGTSDTTSNNTATVISTAPPASSAVTSPSLSPSPSASASTSEASSASETSTTQTTSTPLSSPLGTSQVMVTASGLQTAAAAALQGAAQLPANASLAAMAAAAGLNPSLMAPSQFAAGGALLSLNPGTLSGALSPALMSNSTLATIQALASGGSLPITSLDATGNLVFANAGGAPNIVTAPLFLNPQNLSLLTSNPVSLVSAAAASAGNSAPVASLHATSTSAESIQNSLFTVASASGAASTTTTASKAQ
partner: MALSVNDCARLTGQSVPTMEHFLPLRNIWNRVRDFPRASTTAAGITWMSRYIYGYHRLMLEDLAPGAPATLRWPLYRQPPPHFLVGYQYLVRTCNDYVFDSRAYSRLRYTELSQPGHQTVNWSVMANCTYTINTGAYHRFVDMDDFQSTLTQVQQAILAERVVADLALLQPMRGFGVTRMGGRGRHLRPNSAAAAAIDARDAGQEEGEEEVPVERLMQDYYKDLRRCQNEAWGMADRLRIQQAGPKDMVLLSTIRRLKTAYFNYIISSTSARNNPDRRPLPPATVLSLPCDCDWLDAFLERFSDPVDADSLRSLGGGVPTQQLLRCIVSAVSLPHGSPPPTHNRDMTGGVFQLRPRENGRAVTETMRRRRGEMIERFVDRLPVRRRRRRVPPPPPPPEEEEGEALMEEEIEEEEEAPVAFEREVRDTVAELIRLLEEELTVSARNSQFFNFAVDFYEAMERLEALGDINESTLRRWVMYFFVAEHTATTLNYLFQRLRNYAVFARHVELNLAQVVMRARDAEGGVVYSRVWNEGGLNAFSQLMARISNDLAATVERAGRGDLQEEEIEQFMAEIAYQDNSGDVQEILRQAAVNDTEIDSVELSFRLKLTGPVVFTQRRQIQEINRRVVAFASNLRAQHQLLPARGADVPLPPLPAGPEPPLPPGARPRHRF

Variants of B1 are the subject of this test. The settings on record: with term_ade05 PTP.
With K403Q;R424S, the “effect of a mutation on the interaction” value is listed as “decreasing interaction strength”.

As to I373T;V425A, the “effect of a mutation on the interaction” value was “decreasing interaction strength”.

As to R380W, the “effect of a mutation on the interaction” value is recorded as “disrupting interaction strength”.

As to R383S, the “effect of a mutation on the interaction” value is reported as “decreasing interaction strength”.

Regarding F427Y, the “effect of a mutation on the interaction” value was “disrupting interaction strength”.

Consider C428Y, for which the “effect of a mutation on the interaction” value was “disrupting interaction strength”.

On to N429D, for which the “effect of a mutation on the interaction” value is listed as “disrupting interaction strength”.

Regarding D414G;V425G, the “effect of a mutation on the interaction” value is reported as “disrupting interaction strength”.

Consider S377G;K420E, for which the “effect of a mutation on the interaction” value was “disrupting interaction strength”.

Consider K403E, for which the “effect of a mutation on the interaction” value was “decreasing interaction strength”.

For the variant K403M, the “effect of a mutation on the interaction” value was “disrupting interaction strength”.

As for E408G, the “effect of a mutation on the interaction” value is recorded as “decreasing interaction strength”.

K382T: the “effect of a mutation on the interaction” value is “decreasing interaction strength”.

Take K382E;L394S: the “effect of a mutation on the interaction” value is “decreasing interaction strength”.

On to T384S, for which the “effect of a mutation on the interaction” value is on record as “decreasing interaction strength”.

Take T384P: the “effect of a mutation on the interaction” value was “disrupting interaction strength”.

Take I412F;V425D: the “effect of a mutation on the interaction” value is on record as “decreasing interaction strength”.

On to R431S, for which the “effect of a mutation on the interaction” value is given as “decreasing interaction strength”.

For E400G;M418L, the “effect of a mutation on the interaction” value is recorded as “decreasing interaction strength”.

With V425G, the “effect of a mutation on the interaction” value was “disrupting interaction strength”.

Consider T410S, for which the “effect of a mutation on the interaction” value is given as “decreasing interaction strength”.

In the case of Q415L;C428S, the “effect of a mutation on the interaction” value is given as “decreasing interaction strength”.

Turning to E419G;K433E, the “effect of a mutation on the interaction” value is “decreasing interaction strength”.
